For the data set the following is noted: Bos taurus, 25 °C, CD, Ammonium acetate 0.1 M, reversible: yes, whole UniProt chain shown.

Where “and” joins values, the source holds several entries; their conditions need not be identical. Identical values can stand only once.

B1: Oxytocin-neurophysin 1 wild type, P01175 (protein)
chain: MAGSSLACCLLGLLALTSACYIQNCPLGGKRAVLDLDVRTCLPCGPGGKGRCFGPSICCGDELGCFVGTAEALRCQEENYLPSPCQSGQKPCGSGGRCAAAGICCSPDGCHEDPACDPEAAFSQH
Consider B1, for which the denaturant m value is 1.6 kcal/mol/M and 1.1 kcal/mol/M (pH 6, GdnHCl); 1.5 kcal/mol/M and 1.1 kcal/mol/M (pH 8, GdnHCl); 0.7 kcal/mol/M and 0.4 kcal/mol/M (pH 8, Urea); 0.9 kcal/mol/M and 1 kcal/mol/M (pH 10, GdnHCl). In addition, the unfolding free energy (pH 6, GdnHCl) was 6.8 kcal/mol and 3.1 kcal/mol; the unfolding free energy (pH 8, GdnHCl) was 4.9 kcal/mol and 3 kcal/mol; the unfolding free energy (pH 8, Urea) is 4.4 kcal/mol and 2.4 kcal/mol; the unfolding free energy (pH 10, GdnHCl) is 2.7 kcal/mol and 2.6 kcal/mol.

For the origin of these results see FireProtDB (doi:10.1021/bi9912950).
